The supplement of paper PMC10567573

B1: SERPINB5 (parent)
chain: FPESETKECPFRVNKVCGAACSSK

Variants of: B1
Test: protein stability index of a GFP-peptide fusion (GPS, HEK-293T) (PSI 1-6); higher = more stable
Settings: c terminus: a fixed tail appended
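Note: lentivirally expressed fusions sorted by FACS into six bins by GFP to DsRed ratio, PSI derived from sequencing read proportions per bin multiplied by bin number.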

| Variant | protein stability index |
| --- | --- |
| FPESETKECPFRVNKDCGAACSSK [V16D] | 2.89 |
| FPESETKECPFRVNKTCGAACSSK [V16T] | 2.71 |
| FPESETKECPFRVNKWCGAACSSK [V16W] | 2.49 |
| FPESETKECPFRVNKGCGAACSSK [V16G] | 2.9 |
| FPESETKECPFRVNKRCGAACSSK [V16R] | 2.8 |
| FPESETKECPFRVNKACGAACSSK [V16A] | 3.03 |
| FPESETKECPFRVNKKCGAACSSK [V16K] | 2.61 |
| FPESETKECPFRVNKECGAACSSK [V16E] | 3.12 |
| FPESETKECPFRVNKSCGAACSSK [V16S] | 2.28 |
| FPESETKECMFRVNKVCGAACSSK [P10M] | 3.41 |
| FPESETKECSFRVNKVCGAACSSK [P10S] | 3.96 |
| FPESETKECFFRVNKVCGAACSSK [P10F] | 2.55 |
| FPESETKECCFRVNKVCGAACSSK [P10C] | 3.05 |
| FPESETKECKFRVNKVCGAACSSK [P10K] | 3.75 |
| FPESETKECVFRVNKVCGAACSSK [P10V] | 3.05 |
| FPESETKECYFRVNKVCGAACSSK [P10Y] | 2.3 |
| FPESETKECLFRVNKVCGAACSSK [P10L] | 2.14 |
| FPESETKKCPFRVNKVCGAACSSK [E8K] | 3.04 |
| FPESETKLCPFRVNKVCGAACSSK [E8L] | 2.33 |
| FPESETKICPFRVNKVCGAACSSK [E8I] | 2.13 |
| FPESETKMCPFRVNKVCGAACSSK [E8M] | 1.86 |
| FPESETKWCPFRVNKVCGAACSSK [E8W] | 1.66 |
| FPESETKFCPFRVNKVCGAACSSK [E8F] | 1.97 |
| FPESETKPCPFRVNKVCGAACSSK [E8P] | 2.29 |

| Variant | protein stability index |
| --- | --- |
| FPESETKHCPFRVNKVCGAACSSK [E8H] | 2.14 |
| FPESETKNCPFRVNKVCGAACSSK [E8N] | 2.17 |
| FPESETKSCPFRVNKVCGAACSSK [E8S] | 2.14 |
| FPESETKYCPFRVNKVCGAACSSK [E8Y] | 1.93 |
| FPESETKECPFRVNKVCGAAGSSK [C21G] | 2.69 |
| FPESETKECPFRVNKVCGAARSSK [C21R] | 2.56 |
| FPESETKECPFRVNKVCGAAKSSK [C21K] | 3.19 |
| FPESETKECPFRVNKVCGAAESSK [C21E] | 3.19 |
| FPESETKECPFRVNKVCGAASSSK [C21S] | 2.9 |
| FPESETKECPFRVNKVCGAADSSK [C21D] | 2.81 |
| FPESETKECPFRVNKVCGAAMSSK [C21M] | 2.35 |
| FPESETKECPFRVNKVCGAANSSK [C21N] | 2.44 |
| FPESETKECPFRVNKVCGAAVSSK [C21V] | 2.56 |
| FPESETKECPFRVNKVCGAAPSSK [C21P] | 2.23 |
| FPESETKECPFRVNKVHGAACSSK [C17H] | 2.45 |
| FPESETKECPFRVNKVWGAACSSK [C17W] | 1.76 |
| FPESETKECPFRVNKVVGAACSSK [C17V] | 2.88 |
| FPESETKECPFRVNKVDGAACSSK [C17D] | 2.81 |
| FPESETKECPFRVNKVEGAACSSK [C17E] | 2.98 |
| FPESETKECPFRVNKVYGAACSSK [C17Y] | 2.51 |
| FPESETKECPFRVNKVFGAACSSK [C17F] | 2.79 |
| FPESETKECPFRVGKVCGAACSSK [N14G] | 2.02 |
| FPESETKECPFRVAKVCGAACSSK [N14A] | 2.2 |
| FPESETKECPFRVIKVCGAACSSK [N14I] | 1.96 |

| Variant | protein stability index |
| --- | --- |
| FPESETKECPFRVYKVCGAACSSK [N14Y] | 2.19 |
| FPESETKECPFRVHKVCGAACSSK [N14H] | 3.27 |
| FPESETKECPFRVTKVCGAACSSK [N14T] | 2.5 |
| FPESETKECPFRDNKVCGAACSSK [V13D] | 4.31 |
| FPESETKECPFRCNKVCGAACSSK [V13C] | 3.09 |
| FPESETKECPFRWNKVCGAACSSK [V13W] | 2.19 |
| FPESETKECPFRQNKVCGAACSSK [V13Q] | 4.03 |
| FPESETKECPFRHNKVCGAACSSK [V13H] | 4.26 |
| FPESETKECPFRINKVCGAACSSK [V13I] | 2.6 |
| FPESETKECPFRTNKVCGAACSSK [V13T] | 3.54 |
| FPWSETKECPFRVNKVCGAACSSK [E3W] | 2.29 |
| FPCSETKECPFRVNKVCGAACSSK [E3C] | 2.4 |
| FPRSETKECPFRVNKVCGAACSSK [E3R] | 1.71 |
| FPKSETKECPFRVNKVCGAACSSK [E3K] | 2.09 |
| FPVSETKECPFRVNKVCGAACSSK [E3V] | 1.99 |
| FPTSETKECPFRVNKVCGAACSSK [E3T] | 1.43 |
| FPESETQECPFRVNKVCGAACSSK [K7Q] | 2.86 |
| FPESETPECPFRVNKVCGAACSSK [K7P] | 2.76 |
| FPESETHECPFRVNKVCGAACSSK [K7H] | 3.36 |
| FPESETFECPFRVNKVCGAACSSK [K7F] | 1.89 |
| FPESETDECPFRVNKVCGAACSSK [K7D] | 3.22 |
| FPESETNECPFRVNKVCGAACSSK [K7N] | 3.05 |
| FPESETGECPFRVNKVCGAACSSK [K7G] | 2.52 |
| FPESETTECPFRVNKVCGAACSSK [K7T] | 3.1 |

| Variant | protein stability index |
| --- | --- |
| FPESCTKECPFRVNKVCGAACSSK [E5C] | 1.72 |
| FPESATKECPFRVNKVCGAACSSK [E5A] | 1.88 |
| FPESRTKECPFRVNKVCGAACSSK [E5R] | 1.9 |
| FPESVTKECPFRVNKVCGAACSSK [E5V] | 2.52 |
| FPESSTKECPFRVNKVCGAACSSK [E5S] | 1.97 |
| FPESFTKECPFRVNKVCGAACSSK [E5F] | 1.6 |
| FPESKTKECPFRVNKVCGAACSSK [E5K] | 1.67 |
| FPESYTKECPFRVNKVCGAACSSK [E5Y] | 1.87 |
| FPESNTKECPFRVNKVCGAACSSK [E5N] | 1.89 |
| FPESHTKECPFRVNKVCGAACSSK [E5H] | 1.4 |
| FPESTTKECPFRVNKVCGAACSSK [E5T] | 2.11 |
| FPESGTKECPFRVNKVCGAACSSK [E5G] | 1.68 |
| FPESPTKECPFRVNKVCGAACSSK [E5P] | 3.05 |
| FPESETKECPFRVNKVCGAACSSS [K24S] | 2.25 |
| FPESETKECPFRVNKVCGAACSSL [K24L] | 2.13 |
| FPESETKECPFRVNKVCGAACSSH [K24H] | 2.81 |
| FPESETKECPFRVNKVCGAACSSP [K24P] | 2.21 |
| FPESETKECPFRVNKVCGAACSSE [K24E] | 2.96 |
| FPESETKECPFRVNKVCGAACSST [K24T] | 2.48 |
| FPESETKECPHRVNKVCGAACSSK [F11H] | 5.17 |
| FPESETKECPQRVNKVCGAACSSK [F11Q] | 5.04 |
| FPESETKECPRRVNKVCGAACSSK [F11R] | 4.67 |
